This note sets out measurements from patent US20140235820A1, “METHODS AND COMPOSITIONS FOR MODULATING THE Wnt PATHWAY” (Genentech, Inc., priority 2010, published 2014).

Usually IC50 stands for the point on the concentration scale where inhibition reaches its midpoint. The low end stands for greater potency, the high end for weaker potency.

Positions of bridges follow the written chain, without caps; N, C: chain ends.

One assay concerns the target T1, LRP6 E2 (Homo sapiens, UniProt O75581).
T1 construct: construct E2-amino acids D235-E631 of LPR6; made in house; host or cells: Tni insect cells (baculovirus, secreted)
T1 sequence (O75581 325-631 limits assumed): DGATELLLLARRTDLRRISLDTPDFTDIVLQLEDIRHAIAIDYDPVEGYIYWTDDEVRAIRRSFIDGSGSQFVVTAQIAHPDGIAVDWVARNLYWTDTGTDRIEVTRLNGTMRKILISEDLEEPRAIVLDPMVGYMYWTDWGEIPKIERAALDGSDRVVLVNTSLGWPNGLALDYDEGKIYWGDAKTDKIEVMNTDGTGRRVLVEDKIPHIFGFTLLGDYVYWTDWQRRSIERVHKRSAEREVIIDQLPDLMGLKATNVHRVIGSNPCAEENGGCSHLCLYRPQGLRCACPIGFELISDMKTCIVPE
Briefly: Biolayer interferometry binding to LRP6 E2. As to the method: (§1) Binding kinetics were measured by biolayer interferometry using an Octet Red instrument (ForteBio) as previously described (11). Streptavidin (SA) biosensors were loaded with biotinylated hLRP6 in 50 mMTris, pH 8, 300 mM NaCl, 5% (v/v) glycerol, and 0.05% (w/v) Triton X-100. The loaded biosensors were washed in the same buffer before carrying out association and dissociation measurements for the indicated times. The Kd of each interaction was determined using steady state-analysis through the Octet Red software v6.3. Each reported value represents an average of three or more experiments at different concentrations, with a fitted experimental curve for which the square of the correlation coefficient (R^2) is above 0.96.
(§2) The interaction of the different Dkks and sclerostin with various domains of LRP6 was measured using a biolayer interferometry assay (11). Purified receptors contained individual β-propeller-EGF-like units (E1, E2, or E4), two β-propellers (E1E2 or E3E4), or four β-propellers (E1E4))—as follows:
(§3) Human LRP6: construct E1E4-amino acids A20-Q1253 of LPR6; construct E1E2-amino acids A20-E631 of LPR6; construct E3E4 amino acids E631-Q1253 of LPR6; construct E1-amino acids A20-D325 of LPR6; construct E2-amino acids […]-E631 of LPR6; construct E4-T933-Q1253. The individual LRP6 β-propeller E3 could not be expressed.
In general terms: In BLI a coated tip is dipped into the sample, and binding shifts an interference pattern.

The target of another assay is T2, LRP6 E1 (Homo sapiens, UniProt O75581).
T2 construct: construct E1-amino acids A20-D325 of LPR6; made in house; host or cells: Tni insect cells (baculovirus, secreted)
T2 sequence (O75581 20-325): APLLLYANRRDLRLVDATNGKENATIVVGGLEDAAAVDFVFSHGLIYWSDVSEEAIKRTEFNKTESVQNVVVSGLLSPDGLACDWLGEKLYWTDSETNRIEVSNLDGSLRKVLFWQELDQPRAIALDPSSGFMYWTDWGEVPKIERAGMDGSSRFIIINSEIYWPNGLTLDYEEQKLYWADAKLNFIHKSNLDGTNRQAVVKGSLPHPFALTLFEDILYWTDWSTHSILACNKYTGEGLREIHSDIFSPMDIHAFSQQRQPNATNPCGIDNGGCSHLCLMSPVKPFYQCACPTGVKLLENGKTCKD
As to the kind of experiment: Biolayer interferometry binding to LRP6 E1. Here is the method:
as §1, §2, §3

For another assay, the target named is T3, LRP6 E3E4 (Homo sapiens, UniProt O75581).
T3 construct: construct E3E4 amino acids E631-Q1253 of LPR6; made in house; host or cells: Tni insect cells (baculovirus, secreted)
T3 sequence (O75581 631-1253): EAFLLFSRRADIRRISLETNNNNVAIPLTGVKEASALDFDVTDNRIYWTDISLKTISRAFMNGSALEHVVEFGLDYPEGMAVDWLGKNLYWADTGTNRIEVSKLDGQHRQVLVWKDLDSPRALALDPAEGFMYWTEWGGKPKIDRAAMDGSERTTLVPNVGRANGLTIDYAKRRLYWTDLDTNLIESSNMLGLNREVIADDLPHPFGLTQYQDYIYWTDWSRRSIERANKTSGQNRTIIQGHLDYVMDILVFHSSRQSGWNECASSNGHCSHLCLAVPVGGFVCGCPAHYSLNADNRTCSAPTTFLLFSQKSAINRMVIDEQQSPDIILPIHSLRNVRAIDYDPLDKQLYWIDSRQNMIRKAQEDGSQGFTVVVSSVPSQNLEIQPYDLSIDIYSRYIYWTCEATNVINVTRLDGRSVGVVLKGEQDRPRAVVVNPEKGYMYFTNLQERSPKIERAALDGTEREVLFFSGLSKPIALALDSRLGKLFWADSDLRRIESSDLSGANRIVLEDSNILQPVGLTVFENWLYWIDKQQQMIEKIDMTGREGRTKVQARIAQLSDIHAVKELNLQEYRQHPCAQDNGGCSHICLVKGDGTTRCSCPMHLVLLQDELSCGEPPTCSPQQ
Briefly: Biolayer interferometry binding to LRP6 E3E4. As to conditions: steady state, read-out: affinity for LRP6 E3E4. As to the method: as §1, §2, §3

The next assay addresses T4, LRP6 E1E2 (Homo sapiens, UniProt O75581).
T4 construct: construct E1E2-amino acids A20-E631 of LPR6; made in house; host or cells: Tni insect cells (baculovirus, secreted)
T4 sequence (O75581 20-631): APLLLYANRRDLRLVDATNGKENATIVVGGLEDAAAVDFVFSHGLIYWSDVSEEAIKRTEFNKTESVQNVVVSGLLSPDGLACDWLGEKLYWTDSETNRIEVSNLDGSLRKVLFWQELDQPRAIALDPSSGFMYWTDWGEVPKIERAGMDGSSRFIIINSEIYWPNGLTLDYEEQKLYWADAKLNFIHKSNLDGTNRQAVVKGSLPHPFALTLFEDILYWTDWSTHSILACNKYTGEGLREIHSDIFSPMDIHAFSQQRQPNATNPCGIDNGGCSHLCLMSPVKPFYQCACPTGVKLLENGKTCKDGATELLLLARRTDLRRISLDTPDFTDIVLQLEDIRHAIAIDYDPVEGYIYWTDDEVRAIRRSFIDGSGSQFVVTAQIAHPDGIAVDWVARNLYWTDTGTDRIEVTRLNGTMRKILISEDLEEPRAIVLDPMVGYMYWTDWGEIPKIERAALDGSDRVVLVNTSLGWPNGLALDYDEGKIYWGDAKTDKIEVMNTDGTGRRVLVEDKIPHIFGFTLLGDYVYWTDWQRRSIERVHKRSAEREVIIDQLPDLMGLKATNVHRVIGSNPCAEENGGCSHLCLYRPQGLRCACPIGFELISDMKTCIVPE
Briefly: Biolayer interferometry binding to LRP6 E1E2. The settings on record: steady state, read-out: affinity for LRP6 E1E2. Here is the method:
as §1, §2, §3

In another assay the test system is LRP6. As to the kind of experiment: Competition binding between Dkk1 and other Wnt pathway inhibitors (preloaded Dkk1). Set-up: species or system human. The settings on record: Dkk1 100 nM preloaded, test ligand 100 nM. Here is the method:
FIG. 8. Competition binding between Dkk1 and other Wnt pathway inhibitors. The indicated LRP6 construct was preloaded onto biosensor tips. Dkk1 (100 nM) (or buffer control) and the test ligand (100 nM) were loaded sequentially onto the LRP6 tips. (A) Dkk2 competition with Dkk1. (B) Sclerostin competition with Dkk1. Percent binding in the presence of Dkk1 is shown relative to buffer control.
as §1
To assess whether Dkk1, Dkk2, and sclerostin might bind to the same site on LRP6 E1, Dkk2 or sclerostin binding was measured in the presence of preloaded Dkk1 (100 nM). […]

The target in the next assay is T5, LRP6 E4 (Homo sapiens, UniProt O75581).
T5 construct: construct E4-T933-Q1253; made in house; host or cells: Tni insect cells (baculovirus, secreted)
T5 sequence (O75581 933-1253): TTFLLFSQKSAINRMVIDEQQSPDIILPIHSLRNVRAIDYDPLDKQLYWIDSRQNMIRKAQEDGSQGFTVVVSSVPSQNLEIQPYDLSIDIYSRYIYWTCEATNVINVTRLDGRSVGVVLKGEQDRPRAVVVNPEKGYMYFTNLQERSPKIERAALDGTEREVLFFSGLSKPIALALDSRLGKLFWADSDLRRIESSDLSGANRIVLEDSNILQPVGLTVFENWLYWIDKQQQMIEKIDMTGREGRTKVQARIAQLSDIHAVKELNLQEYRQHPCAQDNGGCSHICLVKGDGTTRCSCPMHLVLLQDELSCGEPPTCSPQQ
Briefly: Biolayer interferometry binding to LRP6 E4. Here is the method: as §1, §2, §3

The target in assay [1] is T6, human LRP6 construct E1 (amino acids A20-D325) (human, UniProt O75581 20-325).
T6 construct: range 20-325; In the Fab crystal E1 arose from E1E2 degraded beyond Arg 335; residues Ala20 to Lys324 were traced; also called LRP6 E1; E1 domain
T6 sequence (looked up): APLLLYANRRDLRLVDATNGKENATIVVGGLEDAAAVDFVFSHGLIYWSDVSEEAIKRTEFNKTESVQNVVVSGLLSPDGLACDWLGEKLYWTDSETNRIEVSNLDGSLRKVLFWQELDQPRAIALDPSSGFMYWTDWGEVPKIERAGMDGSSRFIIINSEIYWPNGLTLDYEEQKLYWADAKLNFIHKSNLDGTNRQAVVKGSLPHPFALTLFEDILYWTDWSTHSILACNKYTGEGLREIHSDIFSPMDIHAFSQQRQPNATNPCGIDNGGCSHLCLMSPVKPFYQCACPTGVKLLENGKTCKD
Briefly: legend of FIG. 22. Here is the method: as §1, with “(R²)” for “(R^2)”

The target in assay [2] is T7, human LRP6 construct E1E2 (amino acids A20-E631) (human, UniProt O75581 20-631, biotinylated for biolayer interferometry).
T7 construct: range 20-631; also called LRP6 E1E2
T7 sequence (looked up): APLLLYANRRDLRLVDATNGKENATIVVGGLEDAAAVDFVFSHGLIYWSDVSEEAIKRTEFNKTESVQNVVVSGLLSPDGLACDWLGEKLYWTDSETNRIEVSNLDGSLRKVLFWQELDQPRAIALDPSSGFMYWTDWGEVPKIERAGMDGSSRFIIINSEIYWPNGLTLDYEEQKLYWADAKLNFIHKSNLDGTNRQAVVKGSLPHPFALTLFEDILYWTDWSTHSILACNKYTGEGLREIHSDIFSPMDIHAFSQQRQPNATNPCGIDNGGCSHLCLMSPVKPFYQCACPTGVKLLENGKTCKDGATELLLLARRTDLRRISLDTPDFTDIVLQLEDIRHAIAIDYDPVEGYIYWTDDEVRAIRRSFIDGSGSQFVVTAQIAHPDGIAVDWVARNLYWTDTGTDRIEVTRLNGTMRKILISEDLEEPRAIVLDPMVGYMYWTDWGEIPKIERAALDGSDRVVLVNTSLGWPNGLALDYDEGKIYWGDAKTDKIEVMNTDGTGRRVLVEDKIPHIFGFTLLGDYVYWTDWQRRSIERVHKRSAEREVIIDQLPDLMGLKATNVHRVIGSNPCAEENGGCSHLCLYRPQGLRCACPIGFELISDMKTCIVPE
As to the kind of experiment: competition phage ELISA. Here is the method:
Peptide affinities were also determined by competition with phage displaying a binding peptide (competition phage ELISA). Serial dilutions of test peptide were mixed with an appropriate (non-saturating) concentration of phage before exposing the mixture to target and allowing it to reach equilibrium. After washing to remove unbound material, bound phage were detected by incubation with anti-M13 antibody-horseradish peroxidase (HRP) conjugate and exposure to a suitable colorometric HRP substrate.
FIG. 7B. These peptides include the “NXI” motif described above. Affinities of the peptides for LRP6 E1E2 were determined by competition phage ELISA (41). […] To understand the detailed interactions of the peptides with LRP6, we determined high-resolution co-crystal structures of the peptides bound to the LRP6 E1 β-propeller.
(In general: An ELISA detects its analyte on a solid surface through an enzyme-linked reagent.)

B1: Dkk2: Dickkopf 2, carrier-free protein from R&D Systems (protein, UniProt Q9UBU2 34-259, looked up)
Dickkopf-related protein 2: KLNSIKSSLGGETPGQAANRSAGMYQGLAFGGSKKGKNLGQAYPCSSDKECEVGRYCHSPHQGSSACMVCRRKKKRCHRDGMCCPSTRCNNGICIPVTESILTPHIPALDGTRHRDRNHGHYSNHDLGWQNLGRPHTKMSHIKGHEGDPCLRSSDCIEGFCCARHFWTKICKPVLHQGEVCTKQRKKGSHGLEIFQRCDCAKGLSCKVWKDATYSSKARLHVCQKI
Regarding B1, the “binding to LRP6 E2 (in words)” value with LRP6 E2 is reported as “Partial binding”. Besides, the “binding to LRP6 E1 (in words)” value with LRP6 E1 is listed as “bind with high affinity”. The results for the Kd in the assay with LRP6 E3E4 and in the assay with LRP6 E1E2 were 38 nM and 53 nM, respectively. Further, the “binding to LRP6 in the presence of preloaded Dkk1” value in the assay on LRP6 is “inhibited only slightly”. The “binding to LRP6 E4 (in words)” value in the assay with LRP6 E4 is reported as “undetectable”.
Turning to Ac-CNSIKFCG-NH2 (disulfide 1-7 (inferred), also called Peptide B) [Ac-CNSIKFCG-am (disulfide)], the binding result in assay [1] is “binds”.
Consider Ac-NSNAIKN-NH2 (also called Dkk1 peptide) [Dkk1 7-mer peptide Ac-NSNAIKN-am], for which the IC50 in assay [2] was 4000 nM. This counts as single-digit micromolar.
